Reference: US20220009992A1 (published 2022)

Key:
[1] = biological target: T1, mesothelin (human MSLN, isoform 1, SEQ ID NO:50) peptide on HLA-A*02:01 (human); test: multimer staining
T1 peptide: SLLFLLFSL

[2] = biological target: T2, mesothelin (human MSLN, isoform 1, SEQ ID NO:50) peptide on HLA-A*02:01 (human); test: multimer staining
T2 peptide: VLPLTVAEV

[3] = biological target: T3, YN010 peptide on HLA-A*02:01 (human); test: cytokine release
T3 peptide: VLALWEAEV

[4] = biological target: T4, GALP peptide on HLA-A*02:01 (human); test: cytokine release
T4 peptide: VLLLSLAET

[5] = biological target: T5, MLEC peptide on HLA-A*02:01 (human); test: cytokine release
T5 peptide: VLVLKFAEV

[6] = biological target: T6, EHF (peptide #10) peptide on HLA-A*02:01 (human); test: cytokine release
T6 peptide: VLLLSLAEI

[7] = biological target: T7, CHPF2 peptide on HLA-A*02:01 (human); test: cytokine release
T7 peptide: VLPLIVAEA

[8] = biological target: T8, DNHD1 peptide on HLA-A*02:01 (human); test: cytokine release
T8 peptide: VLELLLAEL

[9] = biological target: T9, CHPF2 peptide on HLA-A*02:01 (human); test: cytokine release
T9 peptide: VLPLLVAEA

[10] = biological target: T10, OR2J1 peptide on HLA-A*02:01 (human); test: cytokine release
T10 peptide: VLALGTAEC

[11] = biological target: T11, LRCH3 peptide on HLA-A*02:01 (human); test: cytokine release
T11 peptide: DLPLRVAEI

[12] = biological target: T12, IN80B peptide on HLA-A*02:01 (human); test: cytokine release
T12 peptide: MLPLPVAEG

[13] = biological target: T13, ULK1 peptide on HLA-A*02:01 (human); test: cytokine release
T13 peptide: VLYLKVAEL

[14] = biological target: T14, OR2J2 peptide on HLA-A*02:01 (human); test: cytokine release
T14 peptide: VLALGIAEC

[15] = biological target: T15, AL1L1 peptide on HLA-A*02:01 (human); test: cytokine release
T15 peptide: VLELTEAEL

[16] = biological target: T16, CEAM3 peptide on HLA-A*02:01 (human); test: cytokine release
T16 peptide: SMPLSVAEG

[17] = biological target: T17, ADPRH peptide on HLA-A*02:01 (human); test: cytokine release
T17 peptide: VMHLATAEA

B1: Meso20-3B (TCR, V domains shown)
Valpha: GQSLEQPSEVTAVEGAIVQINCTYQTSGFYGLSWYQQHDGGAPTFLSYNALDGLEETGRFSSFLSRSDSYGYLLLQELQMKDSASYFCAVNDASKIIFGSGTRLSIRP
Vbeta: DAGVIQSPRHEVTEMGQEVTLRCKPISGHDYLFWYRQTMMRGLELLIYFNNNVPIDDSGMPEDRFSAKMPNASFSTLKIQPSEPRDSAVYFCASSFTSGSYEQYFGPGTRLTVT
Question: Does B1 bind [1]?
Answer: Result: recognises

B2: Meso530-11A (TCR, V domains shown)
Valpha: GEDVEQSLFLSVREGDSSVINCTYTDSSSTYLYWYKQEPGAGLQLLTYIFSNMDMKQDQRLTVLLNKKDKHLSLRIADTQTGDSAIYFCAETPGYGGATNKLIFGTGTLLAVQP
Vbeta: DTEVTQTPKHLVMGMTNKKSLKCEQHMGHRAMYWYKQKAKKPPELMFVYSYEKLSINESVPSRFSPECPNSSLLNLHLHALQPEDSALYLCASSHGSLNTEAFFGQGTRLTVV
Question: Which results are given for B2?
Answer: binding result [2]: recognises; binding result [3]: no recognition; binding result [4]: no recognition; binding result [5]: no recognition; binding result [6]: no recognition; binding result [7]: no recognition; binding result [8]: no recognition; binding result [9]: no recognition; binding result [10]: no recognition; binding result [11]: no recognition; binding result [12]: no recognition; binding result [13]: no recognition; binding result [14]: no recognition; binding result [15]: no recognition; binding result [16]: no recognition; binding result [17]: no recognition

B3: Meso530-11B (TCR, V domains shown)
Valpha: KQEVTQIPAALSVPEGENLVLNCSFTDSAIYNLQWFRQDPGKGLTSLLLIQSSQREQTSGRLNASLDKSSGRSTLYIAASQPGDSATYLCAVRLLFAQGGSEKLVFGKGTKLTVNP
Vbeta: ETGVTQSPTHLIKTRGQQVTLRCSSQSGHNTVSWYQQALGQGPQFIFQYYREEENGRGNFPPRFSGLQFPNYSSELNVNALELDDSALYLCASSFAGGRSDTQYFGPGTRLTVL
Question: Does B3 bind [2]?
Answer: Result: recognises

Question: Does B3 bind [3]?
Answer: Result: no recognition

Question: Does B3 bind [4]?
Answer: Result: no recognition

Question: Does B3 bind [5]?
Answer: Result: no recognition

Question: Does B3 bind [7]?
Answer: Result: no recognition

Question: Does B3 bind [8]?
Answer: Result: no recognition

Question: Does B3 bind [9]?
Answer: Result: no recognition

Question: Does B3 bind [10]?
Answer: Result: no recognition

Question: Does B3 bind [11]?
Answer: Result: no recognition

Question: Does B3 bind [12]?
Answer: Result: no recognition

Question: Does B3 bind [13]?
Answer: Result: no recognition

Question: Does B3 bind [14]?
Answer: Result: no recognition

Question: Does B3 bind [15]?
Answer: Result: no recognition

Question: Does B3 bind [16]?
Answer: Result: no recognition

Question: Does B3 bind [17]?
Answer: Result: no recognition
